Measured values from patent US20250320303A1 (SHENGHE CHINA BIOPHARMACEUTICAL, published 2025).

Assays:
[1] = target: T1, human TNFR2 (tumor necrosis factor receptor 2), on cells (human, UniProt P20333 23-461); experiment: cell-based or functional assay
T1 sequence (looked up): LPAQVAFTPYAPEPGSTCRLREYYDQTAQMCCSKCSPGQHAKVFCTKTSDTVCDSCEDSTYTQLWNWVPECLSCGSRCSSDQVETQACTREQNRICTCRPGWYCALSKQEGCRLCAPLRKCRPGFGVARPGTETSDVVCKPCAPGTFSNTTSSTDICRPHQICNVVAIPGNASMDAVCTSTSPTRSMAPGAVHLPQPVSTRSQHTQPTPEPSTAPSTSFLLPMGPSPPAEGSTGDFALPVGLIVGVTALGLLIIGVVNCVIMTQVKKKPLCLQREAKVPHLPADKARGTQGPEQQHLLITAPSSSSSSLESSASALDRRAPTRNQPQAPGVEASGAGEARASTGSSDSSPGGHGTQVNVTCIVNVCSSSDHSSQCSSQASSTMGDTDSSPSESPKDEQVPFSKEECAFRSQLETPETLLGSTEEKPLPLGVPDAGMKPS

[2] = target: T1, human TNFR2 (tumor necrosis factor …); experiment: flow cytometry on CHOK1-hTNFR2 cells
Method: CHOK1-hTNFR2 cells were plated at 1×10⁵/well (containing 1% BSA). 100 μL of isotype control and candidate antibodies were added at a concentration of 100 nm and 4-fold diluted in 11 gradients (containing 1% BSA). Cells were incubated at 4° C. for 1 hour and then washed twice with excess FACS buffer. Cells were resuspended in 100 μL of FACS buffer, and 100 μL of goat anti-rat IgG Fc-AF647 (1:500) containing 1% BSA was added, incubated at 4° C. without light for 30 minutes and washed twice with excess FACS buffer. Cells were fixed in fixation buffer and subsequently analyzed by flow cytometry. The FACS method screened for candidate antibodies with high specific binding activity to human TNFR2.

[3] = target: T2, Recombinant human TNFR2-His Tag protein (Sino, Cat: 10417-H08H) (human, UniProt P20333 23-257); experiment: SPR (Biacore 8K), antibody captured by anti-rat Fc, 10 nM TNFR2-His as analyte, 1:1 model
T2 construct: Bought protein; also called hTNFR2; not shown: His tag
T2 sequence (looked up): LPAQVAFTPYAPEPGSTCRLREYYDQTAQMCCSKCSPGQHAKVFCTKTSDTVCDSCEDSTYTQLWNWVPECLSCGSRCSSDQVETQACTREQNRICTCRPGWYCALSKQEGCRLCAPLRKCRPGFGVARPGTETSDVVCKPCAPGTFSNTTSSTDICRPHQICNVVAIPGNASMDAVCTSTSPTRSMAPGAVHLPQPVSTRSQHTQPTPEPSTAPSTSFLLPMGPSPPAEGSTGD
Method: The CM5 sensor chip was activated at a flow rate of […] for 420 s. The channel was then injected with 30 μg/mL of anti-rat Fc IgG in 10 mM NaAc (pH 4.5) at a flow rate of 10 μL/min. The chip was inactivated with 1 M ethanolamine-hydrochloric acid (GE) for 420 s at a flow rate of 10 μL/min.
Candidate antibodies in running buffer 1×HBS-EP+(10 mM HEPES, 150 mM NaCl, 3 mM EDTA, 0.05% Tween 20, pH 7.4) were captured onto Fc2 with anti-rat Fc IgG at a flow rate of 10 μL/min. The 10 nM recombinant human TNFR2-His Tag protein (Sino; Cat: 10417-H08H) and running buffer were sequentially injected into Fc1-Fc2 at a flow rate of […], bound for 180 s, and then dissociated for 3600 s. 10 mM glycine (pH 1.5) was injected as regeneration buffer after each dissociation.
Result plots for the reference channel Fc1 and the buffer channel were subtracted from the test result plots. The experimental data fit the 1:1 binding model. The molecular weight of 26.6 kDa was used to calculate the molar concentration of recombinant human TNFR2-His Tag protein.

[4] = target: T2, Recombinant human TNFR2-His Tag protein …; experiment: competition ELISA: captured TNFR2-His, antibody titrated against 1.6 nM biotin-TNF-alpha (competitor)
Method: Anti-His antibody (1 μg/mL) was coated at 50 μL/well, incubated at 4° C. overnight and washed 3 times with PBST. 2% BSA was added at 200 μL/well, incubated at room temperature for 1 hour and washed 3 times with PBST. 0.25 μg/mL (containing 2% BSA) of recombinant human TNFR2-His Tag protein (Sino; Cat: 10417-H08H) was added at 50 μL/well, incubated for 1 hour at room temperature and washed 3 times with PBST. Primary antibody (isotype control or candidate antibody) was added at a concentration of 100 nM and diluted 4-fold in 11 gradients with a solution containing 1.6 nM recombinant human TNF-alpha-Biotin protein (Sino; Cat: 10602-HANE-B) and 2% BSA, incubated for 2 hours at room temperature and washed 3 times with PBST. Secondary antibody SA-HRP (1:5000) containing 2% BSA was added at 50 μL/well, incubated for 1 hour at room temperature and washed 3 times with PBST.
After washing, TMB developed the color for 10 min, and the OD450 reading was determined by the enzyme labeler after the display was terminated. Based on the experimental results, it was judged whether the candidate antibodies had ligand blocking activity. As shown in Table 2 and FIG. 2, 2 sequences show better ligand blocking ability than BMK2; 6 sequences show equivalent ligand blocking ability to BMK2.

[5] = target: T3, human W3785-hProl.ECD.His (Human-TNFR2-His) protein (human, UniProt P20333 23-257); experiment: indirect ELISA on coated Human-TNFR2-His
T3 construct: extracellular domain; not shown: His tag
T3 sequence (looked up): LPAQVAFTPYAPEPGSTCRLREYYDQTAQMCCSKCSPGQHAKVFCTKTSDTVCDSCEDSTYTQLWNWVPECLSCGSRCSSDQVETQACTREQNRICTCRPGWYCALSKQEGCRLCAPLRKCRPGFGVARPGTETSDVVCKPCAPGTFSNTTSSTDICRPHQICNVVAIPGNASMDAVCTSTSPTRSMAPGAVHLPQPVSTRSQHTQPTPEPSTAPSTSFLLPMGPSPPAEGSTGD
Method: (1) Coating: Human-TNFR2-His was diluted to 0.5 μg/mL with coating solution (1×PBS, pH 7.4), and coated into a 96-well ELISA plate at 100 μL/well at 4° C. overnight. The coating solution was poured off, and the plate was washed with 1×PBST at 300 μL per well, washed with a plate cleaning instrument for 4 times, and patted dry on sheet paper. [0184] (2) Blocking: it was blocked with 3% non-fat dry milk at 300 μL/well, and incubated at 37° C. for 1 h. The blocking solution was poured off, washed by a plate cleaning instrument for 4 times, and patted dry on sheet paper. [0185] (3) Sample dilution: the reference product and the test product were diluted with 3% non-fat dry milk to 10 μg/mL, and this was used as the initial concentration for 3-fold dilution with a total of 11 gradients of dilution, and another one blank well was set up, and only diluent was added. It was incubated at 100 μL/well at 37° C. for 1 h. Liquid in the wells was discarded, washed by a plate cleaning instrument for 4 times, and patted dry on the sheet paper. [0186] (4) Addition of enzyme-labeled secondary antibody: Peroxidase-conjugated AffiniPure F(ab′)2 Fragment Goat Anti-Human IgG was diluted with 3% non-fat dry milk at 1:20,000. It was incubated at 100 μL/well at 37° C. for 1 h. It was washed by a plate cleaning instrument for 6 times and patted dry on sheet paper. […] (5) Color development: TMB color development solution was added at 100 μL/well and wrapped with aluminium foil, and the color was developed at 37° C. without light for 8 min. [0188] (6) Termination of color development: terminal solution 1 M HCl was added to terminate the color development reaction at 100 μL/well. [0189] (7) Reading at 450 nm on the enzyme labeler. [0190]

[6] = target: T3, human W3785-hProl.ECD.His …; experiment: BLI (Octet Red96e), antibody on AHC sensor, Human-TNFR2-His in solution, single concentration
Method: After equilibration of the AHC sensor with 0.02% PBST (0.02% Tween 20, pH 7.4, 1*PBS) as buffer for 60 s, the TNFR2 antibody in the sample plate was immobilized for 300 s, and second equilibration was performed for 180 s. 100 nM of human W3785-hProl.ECD.His (Human-TNFR2-His) protein was bound with the TNFR2 antibody for 300 s and then dissociated for 600 s. After dissociation, 10 mM glycine (pH 2.0) was used as regeneration buffer to regenerate for 30 s.

[7] = target: T3, human W3785-hProl.ECD.His …; experiment: BLI (Octet Red96e), antibody on AHC sensor, Human-TNFR2-His in solution, multiple concentrations

| Binder | IC50(nM), Treg cell count after 72 h with IL2 and TNF-alpha [1] | Treg cell changes relative to IL-2(%) [1] | EC50 [2] | Maximum average fluorescence value [2] | Kd [3] | koff [3] | kon [3] | IC50 [4] | Inhibition rate (%) [4] | EC50 [5] | Kd [6] | Kd [7] | koff [7] | kon [7] |
| --- | --- | --- | --- | --- | --- | --- | --- | --- | --- | --- | --- | --- | --- | --- |
| Antibody 04 (antibody, V domains shown, Rat monoclonal antibody from a hybridoma) VH: EVHLQQSGPEVGRPGSSVKISCKASGYTFTDYIIHWVKQSPGQGLEWMGWIDPDYGNTDYADKFKKKATLTADASSNTAFIHLSRLTSEDTATYFCARDDGSPLVMDAWGQGTSVTVSS VL: NIQLTQSPSLLSASVGDRVTLSCNGSQNIDNYLAWFQQKLGEAPKLLIYSTYSLQTGIPSRFSGSRSGTDYTLTISSLQPEDVATYFCFQYNNGYMFGAGTKLELK | 0.88 nM | 100% | 0.025 nM | 1320 | < 0.00758 nM | < 1e-05 s⁻¹ | 1.32e+06 M⁻¹ s⁻¹ | 0.584 nM | 96% | – | – | – | – | – |
| Antibody 04-xIgG1K (antibody, V domains shown, Rat-human chimeric antibody, human IgG1 kappa) VH: EVHLQQSGPEVGRPGSSVKISCKASGYTFTDYIIHWVKQSPGQGLEWMGWIDPDYGNTDYADKFKKKATLTADASSNTAFIHLSRLTSEDTATYFCARDDGSPLVMDAWGQGTSVTVSS VL: NIQLTQSPSLLSASVGDRVTLSCNGSQNIDNYLAWFQQKLGEAPKLLIYSTYSLQTGIPSRFSGSRSGTDYTLTISSLQPEDVATYFCFQYNNGYMFGAGTKLELKR | – | – | – | – | – | – | – | – | – | 0.00581 µg/mL | 0.148 nM | 0.0606 nM | 6.65e-05 s⁻¹ | 1.1e+06 M⁻¹ s⁻¹ |
| Antibody 11-xIgG1K (antibody, V domains shown, Rat-human chimeric antibody, human IgG1 kappa) VH: EVQLQQSGPELRRPGSSVKLSCKASGYSITDYLLHWVKHSPEHGLEWIGWIDPEDGKTKYGQKFQSKATLTADTSSNAAYMQLSSLTSEDSATYFCAANSGTGTMDAWGQGASVTVSS VL: DIVMTQSPTSMSISVGDRVTLNCKASQNVGSNVDWYQQKTGQSPKVLLYKASIRYTGVPDRFTGSGSGTEFTFTITNMQAEDLAVYFCMQSKSYPITFGSGTKLEIKR | – | – | – | – | – | – | – | – | – | – | 0.396 nM | 0.317 nM | 0.000171 s⁻¹ | 542000 M⁻¹ s⁻¹ |
| Antibody 11 (antibody, V domains shown, Rat monoclonal antibody from a hybridoma) VH: EVQLQQSGPELRRPGSSVKLSCKASGYSITDYLLHWVKHSPEHGLEWIGWIDPEDGKTKYGQKFQSKATLTADTSSNAAYMQLSSLTSEDSATYFCAANSGTGTMDAWGQGASVTVSS VL: DIVMTQSPTSMSISVGDRVTLNCKASQNVGSNVDWYQQKTGQSPKVLLYKASIRYTGVPDRFTGSGSGTEFTFTITNMQAEDLAVYFCMQSKSYPITFGSGTKLEIK | – | – | 0.493 nM | 1010 | 1.4 nM | 0.000169 s⁻¹ | 120000 M⁻¹ s⁻¹ | > 100 nM | 22.4% | – | – | – | – | – |
| Antibody 10-xIgG1K (antibody, V domains shown, Rat-human chimeric antibody, human IgG1 kappa) VH: EVQLVETGGGLVQPGKSLKLTCATSGFTFSNAWMGWVRQSPEKQLEWVAQIKDKSNNYPTYYAESVKGRFTISRDDSESSVYLQMNSLKEEDTAIYYCTGYGDFFDYWGQGVVVTVSS VL: DIQMTQSPASLSASLGETVTIECRASEDIYNGLAWYQQKPGNSPRLLIFNANSLHTGVPSRFSGSGSGTQYSLKINSLQSEDVASYFCQQYYDHPLTFGSGIKLEIKR | – | – | – | – | – | – | – | – | – | 0.0143 µg/mL | 0.24 nM | 0.0996 nM | 8.1e-05 s⁻¹ | 813000 M⁻¹ s⁻¹ |
| Antibody 10 (antibody, V domains shown, Rat monoclonal antibody from a hybridoma) VH: EVQLVETGGGLVQPGKSLKLTCATSGFTFSNAWMGWVRQSPEKQLEWVAQIKDKSNNYPTYYAESVKGRFTISRDDSESSVYLQMNSLKEEDTAIYYCTGYGDFFDYWGQGVVVTVSS VL: DIQMTQSPASLSASLGETVTIECRASEDIYNGLAWYQQKPGNSPRLLIFNANSLHTGVPSRFSGSGSGTQYSLKINSLQSEDVASYFCQQYYDHPLTFGSGIKLEIK | – | – | 0.077 nM | 907 | 0.15 nM | 7.4e-05 s⁻¹ | 492000 M⁻¹ s⁻¹ | > 100 nM | 12.2% | – | – | – | – | – |
